Patent publication US20130012436A1 (Bristol-Myers Squibb, published 2013)
One block for each binder: values may come before it.

Tests used:
human serum albumin [1] = target: T1, human serum albumin (human, UniProt P02768 25-609); assay: SPR, HBS-P buffer, 25 C
T1 construct: also called HSA

murine serum albumin = target: T2, murine serum albumin (mouse, UniProt P07724 25-608); assay: SPR, HBS-P buffer, 25 C
T2 construct: also called MuSA; mouse serum albumin

rhesus serum albumin [2] = target: T3, rhesus serum albumin (rhesus, UniProt Q28522 17-600); assay: SPR, HBS-P buffer, 25 C
T3 construct: also called RhSA
T3 sequence (Q28522 17-600 limits assumed): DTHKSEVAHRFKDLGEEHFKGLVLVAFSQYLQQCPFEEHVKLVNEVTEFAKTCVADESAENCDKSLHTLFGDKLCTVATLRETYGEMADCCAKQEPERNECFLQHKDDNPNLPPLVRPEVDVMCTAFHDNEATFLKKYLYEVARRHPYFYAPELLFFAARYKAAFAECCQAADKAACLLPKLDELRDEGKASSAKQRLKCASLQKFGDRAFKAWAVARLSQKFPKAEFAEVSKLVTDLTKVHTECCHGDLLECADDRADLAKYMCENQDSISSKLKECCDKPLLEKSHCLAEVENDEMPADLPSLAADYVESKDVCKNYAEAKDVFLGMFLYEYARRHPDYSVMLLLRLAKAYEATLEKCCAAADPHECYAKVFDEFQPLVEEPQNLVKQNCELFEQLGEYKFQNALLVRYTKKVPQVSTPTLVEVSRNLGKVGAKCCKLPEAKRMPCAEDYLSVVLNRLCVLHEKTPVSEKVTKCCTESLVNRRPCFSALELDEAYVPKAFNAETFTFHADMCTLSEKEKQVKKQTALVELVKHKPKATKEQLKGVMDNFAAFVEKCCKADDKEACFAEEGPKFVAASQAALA

human serum albumin [3] = target: T1, human serum albumin; assay: SPR, HBS-P buffer, 37 C
rhesus serum albumin [4] = target: T3, rhesus serum albumin; assay: SPR, HBS-P buffer, 37 C
human serum albumin [5] = target: T1, human serum albumin; assay: SPR, HBS-P buffer
rhesus serum albumin [6] = target: T3, rhesus serum albumin; assay: SPR, HBS-P buffer
human serum albumin [7] = target: T1, human serum albumin; assay: SPR, MES buffer, pH 5.5
rhesus serum albumin [8] = target: T3, rhesus serum albumin; assay: SPR, MES buffer, pH 5.5
human serum albumin [9] = target: T1, human serum albumin; assay: SPR, MES buffer, pH 7.4
rhesus serum albumin [10] = target: T3, rhesus serum albumin; assay: SPR, MES buffer, pH 7.4
rat serum albumin = rat serum albumin (rat, UniProt P02770 25-608); assay: SPR and direct binding ELISA
Chain of rat serum albumin (P02770 25-608 limits assumed): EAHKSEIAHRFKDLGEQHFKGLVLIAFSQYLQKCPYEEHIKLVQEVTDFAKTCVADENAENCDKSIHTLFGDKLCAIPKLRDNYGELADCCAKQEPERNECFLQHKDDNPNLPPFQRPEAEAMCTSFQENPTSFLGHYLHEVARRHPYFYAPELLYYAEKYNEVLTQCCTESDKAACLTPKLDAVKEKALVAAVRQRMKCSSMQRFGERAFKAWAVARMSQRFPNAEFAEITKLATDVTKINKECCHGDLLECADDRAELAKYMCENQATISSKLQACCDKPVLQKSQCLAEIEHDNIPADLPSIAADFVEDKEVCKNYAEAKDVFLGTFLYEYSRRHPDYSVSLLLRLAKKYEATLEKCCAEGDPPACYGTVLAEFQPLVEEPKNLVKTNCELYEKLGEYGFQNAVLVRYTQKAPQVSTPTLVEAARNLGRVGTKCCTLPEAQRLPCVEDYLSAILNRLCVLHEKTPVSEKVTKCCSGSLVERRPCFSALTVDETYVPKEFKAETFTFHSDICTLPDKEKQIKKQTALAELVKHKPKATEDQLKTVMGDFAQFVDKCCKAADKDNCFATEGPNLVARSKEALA

human IL-12 = target: T4, human IL-12 (human, UniProt P29459 23-219; P29460 23-328); assay: SPR, Adnectin captured on immobilized anti-His antibody
T4 construct: heterodimeric cytokine; also called recombinant human IL-12
T4 sequence (looked up) 1: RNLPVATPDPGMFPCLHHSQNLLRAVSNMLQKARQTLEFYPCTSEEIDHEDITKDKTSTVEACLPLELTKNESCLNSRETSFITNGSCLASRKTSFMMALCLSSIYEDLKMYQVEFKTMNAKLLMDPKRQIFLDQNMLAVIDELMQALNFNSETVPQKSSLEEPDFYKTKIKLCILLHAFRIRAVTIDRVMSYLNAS
T4 sequence (looked up) 2: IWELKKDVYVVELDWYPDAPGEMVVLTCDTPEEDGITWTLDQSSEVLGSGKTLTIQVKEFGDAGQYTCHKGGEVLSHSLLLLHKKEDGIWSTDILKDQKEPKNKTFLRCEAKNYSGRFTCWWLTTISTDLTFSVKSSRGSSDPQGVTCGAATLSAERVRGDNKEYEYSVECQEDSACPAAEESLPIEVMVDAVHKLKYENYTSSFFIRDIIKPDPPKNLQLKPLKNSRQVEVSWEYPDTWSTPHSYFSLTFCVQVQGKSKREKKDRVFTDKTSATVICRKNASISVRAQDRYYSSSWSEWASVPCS
Experimental: Adnectins listed in Table 2 as well as ATI001016 were used to examine the biochemical selectivity towards IL-23/IL-12. The binding analysis involved the capture of anti-IL-23 Adnectins on immobilized anti-His antibody followed by flow of IL-23 or IL-12 over the Adnectin. The selectivity of the Adnectins for IL-23 was assessed by comparing the binding signal for a 100 fold higher concentration of IL-12 over IL-23.

human IL-23 [11] = target: T5, human IL-23 (human, UniProt Q9NPF7 20-189; P29460 23-328); assay: SPR (ProteOn XPR), human IL-23 directly immobilized, 37 C
T5 construct: also called hIL-23; human recombinant IL-23
T5 sequence (looked up) 1: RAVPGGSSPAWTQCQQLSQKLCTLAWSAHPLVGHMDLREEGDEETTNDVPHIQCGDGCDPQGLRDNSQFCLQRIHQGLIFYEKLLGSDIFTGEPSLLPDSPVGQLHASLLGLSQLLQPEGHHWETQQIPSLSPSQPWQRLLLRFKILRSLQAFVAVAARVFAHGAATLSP
T5 sequence (looked up) 2: T4 sequence (looked up) 2
Experimental: (§1) The binding characteristics were characterized by Surface Plasmon Resonance (SPR). Human IL-23 was immobilized at two to four levels in one dimension of a ProteOn XPR (Bio-Rad) chip surfaces and exposed to 6 different concentrations of anti-IL-23 adnectins in the other dimension of the same SPR chip surface. This allowed kinetic determination in the absence of regeneration. Duplicate chips were used for kinetic determinations at 25° C. and 37° C. Evaluation of the kinetic parameters was performed using the Langmuir interaction model and constant parameter fitting with the ProteOn Manager software.
(§2) Even at 37° C. the off rates were close to the limit of detection for SPR technologies so it is possible that the reported dissociation constant measurements are under-estimates.

human IL-23 [12] = target: T5, human IL-23; assay: KinExA, solution phase, hIL-23 titrated, unbound ATI001045 captured on IL-23 matrix
Experimental: The solution affinity of ATI001045 for human IL-23 was measured using a Kinetic Exclusion Assay (KinExA). In one format duplicate titrations of hIL-23 were performed for each of three concentrations. The relative unbound ATI001045 concentration was measured by capture on a human IL-23 solid matrix followed by detection with a fluorescently labeled antibody that recognizes the Adnectin scaffold. Due to technical limitations, the lowest concentration that could be tested was 0.75 nM.

human IL-23 [13] = target: T5, human IL-23; assay: KinExA, solution phase, adnectin titrated, unbound IL-23 captured on non-PEGylated ATI001045 matrix
Experimental: The solution affinity of ATI001045 and ATI001047 for human IL-23 was also measured using an alternate format in the KinExA. Duplicate titrations of adnectins were performed for each of three (ATI001045) or single (ATI001047) concentrations of human IL-23 (quadruplicate for the lowest concentration). The relative unbound human IL-23 concentration was measured by capture on a non-PEGylated ATI001045 solid matrix followed by detection with a fluorescently labeled antibody that recognizes the p40 subunit of hIL-23.

human IL-23 [14] = target: T5, human IL-23; assay: SPR (ProteOn XPR), human IL-23 directly immobilized, 25 C
Experimental: as §1, §2

human IL-23 [15] = target: T5, human IL-23; assay: cell-based or functional assay

T1 sequence (P02768 25-609 limits assumed): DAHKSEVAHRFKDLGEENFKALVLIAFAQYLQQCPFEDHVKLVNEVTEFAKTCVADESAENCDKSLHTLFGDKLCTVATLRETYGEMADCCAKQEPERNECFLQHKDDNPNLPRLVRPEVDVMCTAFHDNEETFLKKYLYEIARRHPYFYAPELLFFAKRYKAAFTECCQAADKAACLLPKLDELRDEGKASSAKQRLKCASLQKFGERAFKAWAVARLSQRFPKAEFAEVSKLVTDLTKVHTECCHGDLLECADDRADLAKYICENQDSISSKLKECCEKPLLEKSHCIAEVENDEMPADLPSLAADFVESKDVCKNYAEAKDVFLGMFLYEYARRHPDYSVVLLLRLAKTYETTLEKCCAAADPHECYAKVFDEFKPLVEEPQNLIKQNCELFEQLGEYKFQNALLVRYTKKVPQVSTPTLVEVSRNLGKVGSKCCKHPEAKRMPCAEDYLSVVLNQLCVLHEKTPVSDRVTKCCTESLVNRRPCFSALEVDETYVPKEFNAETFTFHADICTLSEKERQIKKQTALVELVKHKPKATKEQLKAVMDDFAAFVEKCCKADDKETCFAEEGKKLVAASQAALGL

Kd (human serum albumin [1]): 55.3 nM
koff (human serum albumin [1]): 0.000443 s⁻¹
kon (human serum albumin [1]): 8210 M⁻¹ s⁻¹
binding result (murine serum albumin): no binding (tested: up to 1 µM)
Kd (rhesus serum albumin [2]): 580 nM
koff (rhesus serum albumin [2]): 0.00378 s⁻¹
kon (rhesus serum albumin [2]): 6600 M⁻¹ s⁻¹
Kd (human serum albumin [3]): 24.1 nM
koff (human serum albumin [3]): 0.000815 s⁻¹
kon (human serum albumin [3]): 33800 M⁻¹ s⁻¹
Kd (rhesus serum albumin [4]): 977 nM
koff (rhesus serum albumin [4]): 0.0185 s⁻¹
kon (rhesus serum albumin [4]): 18900 M⁻¹ s⁻¹
fold increase in affinity at 37 C against 25 C (human serum albumin [5]): ~2 fold
affinity at 37 C relative to 25 C (rhesus serum albumin [6]): 0.5 fold
Kd (human serum albumin [7]): 28.6 nM
koff (human serum albumin [7]): 0.00027 s⁻¹
kon (human serum albumin [7]): 9440 M⁻¹ s⁻¹
Kd (rhesus serum albumin [8]): 359 nM
koff (rhesus serum albumin [8]): 0.00272 s⁻¹
kon (rhesus serum albumin [8]): 7570 M⁻¹ s⁻¹
Kd (human serum albumin [9]): 41.9 nM
koff (human serum albumin [9]): 0.000388 s⁻¹
kon (human serum albumin [9]): 9260 M⁻¹ s⁻¹
Kd (rhesus serum albumin [10]): 479 nM
koff (rhesus serum albumin [10]): 0.00295 s⁻¹
kon (rhesus serum albumin [10]): 6160 M⁻¹ s⁻¹
binding result (rat serum albumin): no binding (tested: 1 µM)
B1: SABA1.2 (designed binder)
chain: MGVSDVPRDLEVVAATPTSLLISWHSYYEQNSYYRITYGETGGNSPVQEFTVPYSQTTATISGLKPGVDYTITVYAVYGSKYYYPISINYRTEIEDEDEDEDED
notes: core 1 with (ED)5 extension

binding result (human IL-12): no binding (tested: 1 µM)
B2: ATI001016 (designed binder)
chain: MGVSDVPRDLEVVAATPTSLLISWGHYPLHVRYYRITYGETGGNSPVQEFTVPSRKYTATISGLKPGVDYTITVYAVTYYKEANYREIPISINYRTGSGC
modifications: pegylated at the C-terminal GSGC linker (Cys)
notes: not shown: his-tag

Kd (human IL-23 [11]): 0.27 nM
koff (human IL-23 [11]): 5.5e-05 s⁻¹
kon (human IL-23 [11]): 203000 M⁻¹ s⁻¹
Kd (human IL-23 [12]): 0.051 nM
Kd (human IL-23 [13]): 0.0094 nM
Kd (human IL-23 [14]): 0.17 nM
koff (human IL-23 [14]): 2.5e-05 s⁻¹
kon (human IL-23 [14]): 150000 M⁻¹ s⁻¹
IL-17 production by human T cells, EC50 (human IL-23 [15]): 2 nM
B3: ATI001045 (designed binder)
chain: B2 chain
modifications: pegylated at the C-terminal GSGC linker (Cys)
